Three molecules from patent publication US20180044415A1 (AbbVie / Abbott, published 2018) can be followed below.

Assay [1] has as its target T1, human DLL3 (immobilized human DLL3 or h293-hDLL3 cells) (human, UniProt Q9NYJ7 27-492, limits assumed).
T1 construct: the sentence says 'immobilized human DLL3 or h293-hDLL3 cells'
T1 sequence: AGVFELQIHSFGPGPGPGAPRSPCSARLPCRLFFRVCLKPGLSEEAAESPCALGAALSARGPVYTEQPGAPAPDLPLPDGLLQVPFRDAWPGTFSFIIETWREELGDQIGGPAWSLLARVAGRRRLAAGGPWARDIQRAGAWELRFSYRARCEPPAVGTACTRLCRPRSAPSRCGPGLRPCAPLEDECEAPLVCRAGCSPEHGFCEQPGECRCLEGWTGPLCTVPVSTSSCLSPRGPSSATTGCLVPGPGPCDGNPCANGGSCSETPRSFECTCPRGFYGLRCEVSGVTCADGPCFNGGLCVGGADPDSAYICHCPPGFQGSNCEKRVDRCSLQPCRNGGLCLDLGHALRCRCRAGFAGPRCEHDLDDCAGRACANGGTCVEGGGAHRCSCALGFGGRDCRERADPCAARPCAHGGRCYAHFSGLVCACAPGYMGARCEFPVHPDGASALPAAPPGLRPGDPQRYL
The assay is described as follows: hybridoma screening on immobilized human DLL3 or on h293-hDLL3 cells.

Assay [2] has as its target T2, DLL3 extracellular domain (amino acids 27-466) displayed on yeast (human, UniProt Q9NYJ7 27-466).
T2 construct: Yeast surface display construct with HA tag; also called DLL3 ECD; wild type DLL3 ECD
T2 sequence: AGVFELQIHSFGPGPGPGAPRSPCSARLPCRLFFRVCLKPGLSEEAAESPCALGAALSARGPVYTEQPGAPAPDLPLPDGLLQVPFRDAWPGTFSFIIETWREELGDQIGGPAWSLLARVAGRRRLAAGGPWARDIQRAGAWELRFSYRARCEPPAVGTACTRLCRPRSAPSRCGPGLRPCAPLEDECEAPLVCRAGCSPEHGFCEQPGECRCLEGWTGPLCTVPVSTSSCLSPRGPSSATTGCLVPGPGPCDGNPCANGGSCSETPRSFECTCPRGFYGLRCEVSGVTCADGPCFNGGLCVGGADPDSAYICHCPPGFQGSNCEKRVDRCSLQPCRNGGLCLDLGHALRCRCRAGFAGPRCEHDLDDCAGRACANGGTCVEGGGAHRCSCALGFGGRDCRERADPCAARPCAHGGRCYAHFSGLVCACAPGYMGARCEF
The assay is described as follows: fine epitope mapping. The method, then:
To test for binding to a particular construct, 200,000 induced yeast cells expressing the desired construct were washed twice in PBS+1 mg/mL BSA (PBSA), and incubated in 50 μL of PBSA with biotinylated anti-HA clone 3F10 (Roche Diagnostics) at 0.1 μg/mL and either 50 nM purified antibody or 1:2 dilution of unpurified supernatant from hybridomas cultured for 7 days. Cells were incubated for 90 minutes on ice, followed by two washes in PBSA. Cells were then incubated in 50 μL PBSA with the appropriate secondary antibodies: for murine antibodies, Alexa 488 conjugated streptavidin, and Alexa 647 conjugated goat anti mouse (Life Technologies) were added at 1 μg/mL each; and for humanized or chimeric antibodies, Alexa 647 conjugated streptavidin (Life Technologies) and R-phycoerythrin conjugated goat anti human (Jackson Immunoresearch) were added at 1 μg/mL each. After a twenty minute incubation on ice, cells were washed twice with PBSA and analyzed on a FACS Canto II. Antibodies that bound to DLL3-DLL1 chimera were designated as binding to the N-terminal region+DSL. Antibodies that bound specifically to an epitope present on a particular EGF-like domain were designated as binding to its respective domain (FIG. 2.)
Alternatively, a yeast display method (Chao et al., 2007, PMID: 17406305) was used to map the epitopes of selected antibodies. Libraries of DLL3 ECD mutants were generated with error prone PCR using nucleotide analogues 8-oxo-2′deoxyguanosine-5′-triphosphate and 2′-deoxy-p-nucleoside-5′triphosphate (TriLink Bio) for a target mutagenesis rate of one amino acid mutation per clone. These were transformed into a yeast display format. Using the technique described above for domain-level mapping, the library was stained for HA and antibody binding at 50 nM. […] These clones were re-grown, and subjected to another round of FACS sorting for loss of binding to the target antibody. Using the Zymoprep Yeast Plasmid Miniprep kit (Zymo Research), individual ECD clones were isolated and sequenced. […]

B1: SC16.23 (antibody, V domains shown)
VH: QVTLKESGPGILQPSQTLSLTCSFSGFSLSTSNTGIGWIRQPSGTGLEWLAHIWWNDDKYYNPSLKSRLTISKETSNNQVFLKITNVDTADTASYFCVQIGRDYSNYAWYFDVWGAGTTVTVSS
VL: QIVLTQSPAIMSASPGEKVTLTCSASSSVSSRYLYWYQQKPGSSPKLWIYSTSNLASGVPARFSGSGSGTSYSLIISSMEAEDAASYFCHQWSNYPLTFGAGTKLELK
notes: murine mAb; variable regions only
On to B1, for which the binding result in assay [1] and in assay [2] was “binds” each time.

B2: SC16.34 (antibody, V domains shown)
VH: QIQLVQSGPELKRPGETVKISCKASGYTFTNYGMNWVKQAPGKGLKWMGWINTYTGDPTYADDFKGRFAFSLETSASTAYLQINNLKNEDTATYFCARIGGNSPSDYWGQGTSLTVSS
VL: SIVMTQTPKFLLVSAGDRVTITCKASQSVSNDVAWYQQKPGQSPKLLIYYASNRYSGVPDRFTGSGYGTDFTFTISTVQAEDLAVYFCQQDYSSPWTFGGGTKLEIK
notes: as for B1
Turning to B2, the binding result in assay [1] and in assay [2] was “binds” throughout.

B3: SC16.56 (antibody, V domains shown)
VH: QIQLVQSGPELKKPGETVKISCKASGYTFTNYGMNWVKQAPGKGLKWMAWINTYTGEPTYADDFKGRFAFSLETSASTASLQIINLKNEDTATYFCARIGDSSPSDYWGQGTTLTVSS
VL: SIVMTQTPKFLLVSAGDRVTITCKASQSVSNDVVWYQQKPGQSPKLLIYYASNRYTGVPDRFAGSGYGTDFSFTISTVQAEDLAVYFCQQDYTSPWTFGGGTKLEIR
notes: as for B1
In the case of B3, the binding result in assay [1] and in assay [2] was “binds” throughout.
